The text below walks through data of patent US20250043313.

This data set has as its target SuperFi-Cas9 (7-D Cas9) 7-D: seven RuvC loop residues shown in FIG. 4b each mutated to Asp (individual residues not listed in text) (Streptococcus pyogenes) (UniProt Q99ZW2). The experiment in a line: cleavage_in_vitro. Particulars: PAM TGG, 10 mM Mg2+, 37 C.

In turn, “GACGCAUAAAGAUGAGACGC / AGCTGACGTTTGTACTCCAGCGTCTCATCTTTATGCCAGAGCAGAGATTTCTGCT / AGCAGAAATCTCTGCTCTGGCATAAAGATGAGACGCTGGAGTACAAACGTCAGCT [sgRNA ; 18-20 MM DNA]” returned an activity (kobs +/- 0.0002, amplitude 8.4 nM, 500-fold slower than on-target) of 0.004 s⁻¹.
Regarding “GACGCAUAAAGAUGAGACGC / AGCTGACGTTTGTACTCCAGCGTCTCATCTTTATGCGTCAGCAGAGATTTCTGCT / AGCAGAAATCTCTGCTGACGCATAAAGATGAGACGCTGGAGTACAAACGTCAGCT [sgRNA ; On-target DNA]”, the activity (kobs +/- 0.1, amplitude 7.7 nM, 6.3-fold preference over 18-20 MM in competition) was 2 s⁻¹.
